Results published in the nanobody polyreactivity screen of Harvey et al. (2022).

Test: yeast display, Sf9 membrane polyspecificity reagent, FACS + sequencing; frameworks hold sequencing errors
Procedure, shortened: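 Nanobodies came from a synthetic yeast display library in Saccharomyces cerevisiae BJ5465, induced with galactose for 36–48 hours and stained for 1 hour at 4 °C with 10% biotinylated, detergent-solubilized Sf9 membrane reagent. Cells were enriched on streptavidin microbeads and then FACS-sorted, with low and high (top ~1%) gates set on anti-HA fluorescence for expression and streptavidin fluorescence for reagent binding. Each polyreactivity label reflects the gate a clone came from. Genes were amplified by colony PCR, sequenced by MiSeq 2 × 250 and filtered by CDR length.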

Row | Sequence | polyreactivity (PSR sort gate)
1 | QVQLVESGGGLVQAGGSLRLSCAASGRIFGRYAMGWSRQAPGKERELVASISKRGGSTYYADSVKGRFTISRDNAKNTVYLQMNSLKPEDTAVYYCAALFLSHIYYYWGQGTQVTVSS | high polyreactivity
2 | QVQLVESGGGLVQAGGSLRLICAASGIIFSDYAMGWYRQAPGKERELVAAITGGGSTYYADSVKGRFTISRDNAKNTVYLQMNSLKPEDTAVYYCNADTWGFTYYYWGQGTQVTVSS | low polyreactivity
3 | QVQLVESGGGLVQAGGSLRLSCSASGRTFKVYAMGWYRQAPGKERELVAAISYSGAGTRYADSVKGRFTISRDNAKNTVYLQMNSLKPEDTAVYYCNTDAWARVKRYEYWGQGTQVTVSS | low polyreactivity
4 | QVQLVESGGGLVQAGGSLRLSCAASGSTFLYYAMGWYRQAPGKERELVARITTRVGRTYYADSVKGRFTISRDNAKNTVYFQMNSLKPEDTAVYYCAAYPDYSYYYWGQGTQVTVSS | high polyreactivity
5 | QVQLVESGGGLVQAGGSLRLSCAASGLTFSLYALGWYRQAPGKERELVAAISWTGGSTYYADSVKGRFSISRDNAKNTVYLQMKSLKPEDTAVDYCNARYTLFARYGYDYWGQGTQVTVSS | low polyreactivity
6 | QVQLVESGGGLVQAGGSLRLSCAASGRTFGHYAMGWYRQAPGKERELVATITGGGTTNYADSVKGRFTISRDNAKNTVYLQMNRLKPEDTAVYYCNAAWRYYWLGLRRNGYWGQGTQVTVSS | high polyreactivity
7 | QVQLVESGRGLVQAGGSLRLSCAASGRTFYSNAMGWYRQAPGKERELVAGINWSGVSTYYADSVKGRFTISRDNAKNTVYLQMNSLKPEDTAVYYCAADTYAGYNGNYWGQGTQVTVSS | high polyreactivity
8 | QVQLVESGGGLVQAGGSLRLSCAASGSIFAKNAMGWYRQAPGKERELVAGIDFSGGSTYYADSVKGRFTLSRDNAKNTVYLQMNSLKPEDTAVYYCAADWAYKYELDYWGQGTQLTVSS | low polyreactivity
9 | QVQLVESGGGLVQAGGSLRLSCAASGFIFPWNAMAWYRQAPRKERELVAAISFSGGSTYYADSVKGRFTISRDNAKNTVYLQMNSLKPEDTAVYYCAKRTWDLRRTRHYYWGQGTQVTVSS | low polyreactivity
10 | QVQLVESGGGLVQAGGSLRLSCAASGLTFVANAMGWYRQAPGKERELVAAISRRGTRTYYADSVKGRFTISRDNAKNTVYLQMNSLKPEDTAVYYCAAEYNSEYDYWGQGTQVTVSS | high polyreactivity
11 | QVQLVESGGGLVQAGGSLRLSCAASGFTFNRYAMGWYRQAPGKERELVAAISWSGTSTYYADSVKGRFTISRDNAKNTVYLQMNSLKPEDTAVYYCAARVKGQWNTYDYWGQGTQVTVSS | high polyreactivity
12 | QVQLVESGGGLVQAGGSLRLISAASVRTFAPYPRGWYREAPGKDRELVAAISSGGGNTYYADSVKGRFTISRDHPKNTVYLLMNSLKPEDTAGYYCNAAQRRGGLGYWGQGTQVTVSS | high polyreactivity
13 | QVQLVESGGGLVQAGGSLSLSCAASGSTFVINAMGWYRPAPRKERELLAAIRGRCVSTSYADSVKGRFTISRDIAKNTVYLQMNSLKPEDTEVYYCAADSRTGYYYWGQGTQVTVSS | high polyreactivity
14 | QVQIVESGGGLVQAGGSLRLSCAASGSIFDGNAMGWYRQAPGKERELVAAITWRGTRTYYADSVKGRFTISRDNAKNTVYLQMNSLKPEDTAVYYCAATSYSTYILGGTRRYDYWGQGTLVTVSS | high polyreactivity
15 | QVQLVESGGGLVQAGGSLRLSCAASASIYPYAMGWYRQAPGKERELVAAITRSGASTYYADSVKGRFTISRDNAKNTVYLQMNSMKPEDTAVYYCAAYALRGVRYPYRVDFYYWGQGTQVTVSS | high polyreactivity
16 | QVQLVESGGCLLQAGGSLRLSCAASGYTFGKNAMGWYRPAPGKERELVARIRTNGGTTYYADSVKGRFTISRDIAKYTVYLQMYSLKPEDTAVDYCNAYRGYEYDYWGQGTHVTVSS | low polyreactivity
17 | QLQHVESWGGLVQAGGSLRLSCAASGRTFRANDKRSYRQAPGKQSELVAAISQSGGSRYYADSVKGRFTISRDNAKNTVYLQLNSLKPEDTAVYYCNALGRISNHTLYDYWGQGTQVTVSS | low polyreactivity
18 | QVHLVESGGGLVQAGGSLLLSCSASGSIFTFNAMGWYRQAPGKERELVAAISSGGNTYYADSEKGRFTISRDNAKNSVYLQMNSLKPEDTAVYYCAAVRRTDGDGKYYYWGQGTEVTVSS | high polyreactivity
19 | QLQLVESGRGLVQAGGSLRLSCAASGRTFYGYDMGWYRPAPGKERELVATISSGGSTNYADSVKGRFTISRDNAKNTVYLQMNSLKPEDTAVYYCNADSYEYPSPYRYYYLGYDYWGQGTQVTVSS | low polyreactivity
20 | QVQLVESGGGLVQAGGSLRLSCAASGFTFGSNTMGWYRQAPGKERELVAAITTSGDSTYYADSVKGRFTISRDTAKNTVYLQMNSLKPEDTAVYYCAAERRYGRYYRLVRLLGQGTQVTVSS | high polyreactivity
21 | QVQLVESGGGLVQAGGSLRLSCAASGSIFVINAMGWYRQAPGKERELVAAISYSGTGTYYADSVKGRFTISRDNAKNTVYLQMNSLKAEDTAVYYCAADFYYRYRIYDYWGQGTQVTVSS | low polyreactivity
22 | QVQLVESGGGLDQAGGSLRLSCAASGRIFDKYALGCYRHAPGKERELVAAISSSGGSTYYADSVKGRFTISRDNAKNTVYLQMNSLKTEDTAVYYCAKLVVVPFYYWGQGTQVTVSS | high polyreactivity

Row | Sequence | polyreactivity (PSR sort gate)
23 | QVQLVESGGGLVQAGGSIRLSCAASGRTFDGNALGWYRKAPGKERELVAAITSGGSTNYAYSVKGRFTISRDNAKNTVYVQRNSLKPEDTAVYYCAAERWYGYSHSDFGYWGQGTQVTVSS | high polyreactivity
24 | QVQLVESGGGLVQAGGSLRITCAASGLTFPPNAMGWYRQAPGKERELVAAITRSGGSTYYADSVKGRFTISRDNAKNTFYLQMNSLKPEDTAVYYCAVYLPYSQRYVHYYYWGQGPQVTVSS | high polyreactivity
25 | QVQLVESGGGLVQAGGSLRLSCAASGIIFAWYVMGWYRQAPGKERELVAAITQSGGSTFYADSVKGRFTISRDNAKNTVYLQMNSLKPEDTAVYYCNTEDFFNVPEMDSWGQGTQVTVSS | low polyreactivity
26 | QVQLVESGGGLVQAGGSLRLSCAASGRTLQAYAMGWYRQAPGKERELVAAINSSGGTTYYADSVKGRFTISRDNAKNTVYLQMNSLKPEDTAVYYCAATYWYHGRYYWYAYDYWGQGTQVTVSS | high polyreactivity
27 | QVQLVVSGGGLVQAGGSLRLSCAASGITFYEYAMGWYRQSPGKESELVATITSGGNTNYADSVKGRFTISRDNAKNTGYLLMNSLIPEDTSVYYCAASVGYYSRYGYGYWGQGTQVTVSS | low polyreactivity
28 | QVQLVESGGGLVQAGGSLRLSCAASGSTFPYYTMGWYRQAPGKERELVAAICGRGTSTYYADSVKGRFTISRDNAKNTVYLQMISLKPEDTAVYYCAARRADVQPYSPVYAYGAYDYWGQGTQVTVSS | high polyreactivity
29 | QVQLVESGGGLVQAGGSLRLSCAASGFIFRDYAMGWYRQAPGKEREFVAAITSRGGSTYYADSVKGRFTISRDNAKNTVYLQMNSLKPEDTAVYYCNRYWWAYGEYDYWGQGTQVTVSS | high polyreactivity
30 | QVQLVESGGGLVQAGGSLRLSCAASGNTLGYNAMGWYRKAPGKERELVATIRGSGGITYYADSVKGRFTISRDNAKNTVYLQMNSLKPEDTAVDYCAKVYKYRVKGDHWGQGTQVTVSS | low polyreactivity
31 | QVQHVESGGGLVQAGGRLRLTCPASGSTVGYYAMGWYRQAPGKEREFVATITFGGSTHYADSVKGRFTISRDNAKYTVYLQMNSLKPEDTAFYYCAKRYYTNRHSRAFGYWGQGTQVTVSS | high polyreactivity
32 | QVQLVESGGGLVQAGGSLRLSCAASGRIFRYYAMGWYRQATGKERELVATITASSGSTYYADSVKGRFTISRDNAKNTVYLQMNSLKPEDSAVYYCAAGFVYRPGSFIRFDYWGQGTQVTVSS | high polyreactivity
33 | QVQLVESGGGLDQAGVSLRLSCAASGSTFSANAMGWFRQAPGKERELVAAISSGDITYYADSVKGRFTISRDNAKNTVYLQMNSLKPEDTAVYYCAKYTRPTGNVDDGFEYWGQGTQVTVSS | low polyreactivity
34 | QVQLVESGGGLVQAGGSLRISCAASGYTFGNYAMGWYRQAPGKERELVAAISWRGARTNYADSVKGRFTISRDNAKNTVYLQMNSLKPEDTAVYYCAAGYYYGYPPRDYWGQGTQVTVSS | high polyreactivity
35 | QVQLVESGGGLVQAGGSLRLSCAAYGSTFWANAMGWYRQAPGKERELVAAIRGTGGSTYADSVKGRFTISRDNAKNTVYLQMNSLKPEDTAVYYCNAKGRGWTAQYDYWGQGTQVTVSS | low polyreactivity
36 | QVHLVESGGGLVQAGGSLRLSCAATGSTFPFYTMGWYRQAPGKERELVASISVKGDTTYYADSVKGRFTISRDNAKNTVYLQMNSLKPDDTAVYYCATGPYIWQEWSPGFEYWGQGTQVTVSS | low polyreactivity
37 | QVQLVESGGVLVQAGGSLRLSCAASGRTFLNYTMGWYRQAPRKDIELVAAISTSGGSTNYADSVKGRFTISRDNAKNTVYLQMTSLKPEDTAVYYCAAETSTKPEAYEYWGQGTQVTVSS | low polyreactivity
38 | QVQLVESAGGLVQAGGSLRLSCDASGYTFNYNTMGCYRQARGKERELVSAINTSGSTDYADSVKGRFTISRDNAKNTDYLLMNRLKPEDTAVYYCAVRVAYKYNYWGQGTQETVSS | high polyreactivity
39 | QVQLVESGGGLVQAGGSLRLSCAASGRIFDVYEMGWYRQAPGKERELVAAMTWSGTSTYYADSVKGRFTISRDNAKNTVYLQMNSLKPEDTAVYYCNALSYGRYLNYRGGMDYWGQGTQVTVSS | high polyreactivity
40 | QEQLHESGGGLVQAGGSLRLSCAASRTISVTYNMGWYRQATGKEREFVAGNSTGDTTNYADSVKGRFTISRDNAKNTVYLQMNSLKPEDTAVNYCSAHIYRQDHFYYWGQGTQVTVSS | low polyreactivity
41 | QVQLVESGGGLVHAGGSLRLSCAASGRTFCGYAMGRYRHAPGKERELVATNSYSSGSTYYADSVKGRFTISRDNAMNTVYLQMNSLTPEDTAVYYCAARIRYFYRYDYWGQGTQVTVSS | high polyreactivity
42 | QVHLVESGGGLVQAGGSLRLSCAASGGIFPGYAMGRYRKAPGKERELVAAITKRGGRTYYADSVKGRFTISRDNAKNTVYLQMNSLKPEDTAVYYCAADYYAAYHLPDQDYDYWGQGTQVTVSS | high polyreactivity
43 | QVQLVESGGGLVQAGGSLRLSCAASGNTFEHYAMGWYRQAPGKERELVAAISYSGGSTYYADSVKGRFTISRDNAKNTVYLQMNSLKPEDTAVYYCNARGRASATGRRGRPDPFGYWGQGTQVTVSS | high polyreactivity
